Test results published in patent publication US20150203577A1 (Chugai, published 2015).

T1: mouse FcγRII (mouse, UniProt P08101 30-210)
T1 construct: Extracellular domain with C-terminal His tag; also called mFcγRII; mFcgRII
T1 sequence: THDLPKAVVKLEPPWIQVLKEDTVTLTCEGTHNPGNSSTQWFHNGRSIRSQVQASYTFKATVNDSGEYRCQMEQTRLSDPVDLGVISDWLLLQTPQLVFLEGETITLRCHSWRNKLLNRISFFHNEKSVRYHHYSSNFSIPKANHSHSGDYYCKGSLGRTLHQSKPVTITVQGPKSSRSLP

T2: mouse FcγRIII (mouse, UniProt P08508 31-215)
T2 construct: Extracellular domain with C-terminal His tag; also called mFcγRIII; mFcgRIII
T2 chain: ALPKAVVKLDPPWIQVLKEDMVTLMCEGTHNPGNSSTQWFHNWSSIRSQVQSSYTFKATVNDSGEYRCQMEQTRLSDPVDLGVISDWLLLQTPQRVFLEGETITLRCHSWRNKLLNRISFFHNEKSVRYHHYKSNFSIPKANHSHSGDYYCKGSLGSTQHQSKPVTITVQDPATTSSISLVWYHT


Tests used:
mouse FcγRII [1] = molecular target: T1, mouse FcγRII; assay: SPR (Biacore T200); KD of H237-MB630/MRAL-k0 / KD of variant
Excerpt: (§1) The antibody H chain variable region used was the variable region H237 (SEQ ID NO: 1) of the H chain VH3-IgG1 of the anti-IL-6 receptor antibody Fv4-IgG1 described in WO2009/125825. The antibody L chain commonly used was the L chain MRAL-k0 (SEQ ID NO: 2) of the anti-IL-6 receptor antibody tocilizumab. […] These variants were expressed and purified by the method of Reference Example 1 and evaluated for their binding to mFcγRII and mFcγRIII by the method of Reference Example 2 using Biacore T200.
(§2) Each altered antibody was analyzed for its interaction with each Fcγ receptor prepared above using Biacore T100 (GE Healthcare Japan Corp.), Biacore T200 (GE Healthcare Japan Corp.), Biacore A100, or Biacore 4000. The running buffer used was HBS-EP+ (GE Healthcare Japan Corp.). The assay temperature was set to 25° C. The sensor chips used were chips prepared by immobilizing Protein L (ACTIGEN or BioVision) onto Series S Sensor Chip CM5 (GE Healthcare Japan Corp.) or Series S Sensor Chip CM4 (GE Healthcare Japan Corp.) by the amine coupling method.
(§3) In order to calculate the KD value of each altered antibody for FcγR, kinetic analysis was conducted according to the following method: first, the antibody of interest was captured onto any of these chips and allowed to interact with mFcγR diluted with a running buffer. For the obtained sensorgram, the assay results were globally fit into the 1:1 Langmuir binding model using Biacore Evaluation Software to calculate an association rate constant ka (L/mol/s) and a dissociation rate constant kd (1/s). From these values, the dissociation constant KD (mol/L) was calculated.

mouse FcγRIII [2] = molecular target: T2, mouse FcγRIII; assay: as above
Excerpt: as §1, §2, §3

mouse FcγRII [3] = molecular target: T1, mouse FcγRII; assay: SPR (Biacore T200); KD of H237-mIgG1/MRAL-k0 / KD of variant
Excerpt: as §1, §2

mouse FcγRIII [4] = molecular target: T2, mouse FcγRIII; assay: as above
Excerpt: as §1, §2

Relative mFcγRII-binding activity (MB630 = 1) (mouse FcγRII [1])	Relative mFcγRIII-binding activity (MB630 = 1) (mouse FcγRIII [2])	relative mFcγRII-binding activity (mIgG1 = 1) (mouse FcγRII [3])	relative mFcγRIII-binding activity (mIgG1 = 1) (mouse FcγRIII [4])	Binder
1.86 fold	2.29 fold	20.2 fold	0.39 fold	MB780 (antibody, mouse IgG1, kappa, CH name; VH H237 + CH, L chain MRAL-k0; copies: 2 + 2) heavy: QVQLQESGPGLVKPSETLSLTCAVSGHSISHDHAWSWVRQPPGEGLEWIGFISYSGITNYNPSLQGRVTISRDNSKNTLYLQMNSLRAEDTAVYYCARSLARTTAMDYWGEGTLVTVSSAKTTPPSVYPLAPGSAAQTNSMVTLGCLVKGYFPEPVTVTWNSGSLSSGVHTFPAVLQSDLYTLSSSVTVPSSTWPSETVTCNVAHPASSTKVDKKIVPRDCGCKPCICEPNEVELVFIFPPKPKDVLTITLTPKVTCVVVDISKDDPEVQFSWFVDDVEVHTAQTQPREEQFNSTFRSVSELPIMHQDWLNGKEFKCRVNSAGFPAPIEKTISKTKGRPKAPQVYTIPPPKEQMAKDKVSLTCMITDFFPEDITVEWQWNGQPAENYKNTQPIMDTDGSYFVYSKLNVQKSNWEAGNTFTCSVLHEGLHNHHTEKSLSHSPGK light: not shown
0.48 fold	0.77 fold	5.2 fold	0.13 fold	MB781 (antibody, mouse IgG1, kappa, CH name; VH H237 + CH, L chain MRAL-k0; copies: 2 + 2) heavy: QVQLQESGPGLVKPSETLSLTCAVSGHSISHDHAWSWVRQPPGEGLEWIGFISYSGITNYNPSLQGRVTISRDNSKNTLYLQMNSLRAEDTAVYYCARSLARTTAMDYWGEGTLVTVSSAKTTPPSVYPLAPGSAAQTNSMVTLGCLVKGYFPEPVTVTWNSGSLSSGVHTFPAVLQSDLYTLSSSVTVPSSTWPSETVTCNVAHPASSTKVDKKIVPRDCGCKPCICEPNEVELVFIFPPKPKDVLTITLTPKVTCVVVDISKDDPEVQFSWFVDDVEVHTAQTQPREEQFNSTFRSVSELPIMHQDWLNGKEFKCRVNSAAFPKPIEKTISKTKGRPKAPQVYTIPPPKEQMAKDKVSLTCMITDFFPEDITVEWQWNGQPAENYKNTQPIMDTDGSYFVYSKLNVQKSNWEAGNTFTCSVLHEGLHNHHTEKSLSHSPGK light: not shown
2.82 fold	4.34 fold	30.6 fold	0.75 fold	MB783 (antibody, mouse IgG1, kappa, CH name; VH H237 + CH, L chain MRAL-k0; copies: 2 + 2) heavy: QVQLQESGPGLVKPSETLSLTCAVSGHSISHDHAWSWVRQPPGEGLEWIGFISYSGITNYNPSLQGRVTISRDNSKNTLYLQMNSLRAEDTAVYYCARSLARTTAMDYWGEGTLVTVSSAKTTPPSVYPLAPGSAAQTNSMVTLGCLVKGYFPEPVTVTWNSGSLSSGVHTFPAVLQSDLYTLSSSVTVPSSTWPSETVTCNVAHPASSTKVDKKIVPRDCGCKPCICEPNEVELVFIFPPKPKDVLTITLTPKVTCVVVDISKDDPEVQFSWFVDDVEVHTAQTQPREELFNSTFRSVSELPIMHQDWLNGKEFKCRVNSDAFPAPIEKTISKTKGRPKAPQVYTIPPPKEQMAKDKVSLTCMITDFFPEDITVEWQWNGQPAENYKNTQPIMDTDGSYFVYSKLNVQKSNWEAGNTFTCSVLHEGLHNHHTEKSLSHSPGK light: not shown
1.96 fold	2.89 fold	21.3 fold	0.5 fold	MB782 (antibody, mouse IgG1, kappa, CH name; VH H237 + CH, L chain MRAL-k0; copies: 2 + 2) heavy: QVQLQESGPGLVKPSETLSLTCAVSGHSISHDHAWSWVRQPPGEGLEWIGFISYSGITNYNPSLQGRVTISRDNSKNTLYLQMNSLRAEDTAVYYCARSLARTTAMDYWGEGTLVTVSSAKTTPPSVYPLAPGSAAQTNSMVTLGCLVKGYFPEPVTVTWNSGSLSSGVHTFPAVLQSDLYTLSSSVTVPSSTWPSETVTCNVAHPASSTKVDKKIVPRDCGCKPCICEPNEVELVFIFPPKPKDVLTITLTPKVTCVVVDISKDDPEVQFSWFVDDVEVHTAQTQPREELFNSTFRSVSELPIMHQDWLNGKEFKCRVDSAAFPAPIEKTISKTKGRPKAPQVYTIPPPKEQMAKDKVSLTCMITDFFPEDITVEWQWNGQPAENYKNTQPIMDTDGSYFVYSKLNVQKSNWEAGNTFTCSVLHEGLHNHHTEKSLSHSPGK light: not shown

The next lines start with the binder.

Binder	Relative mFcγRII-binding activity (MB630 = 1) (mouse FcγRII [1])	Relative mFcγRIII-binding activity (MB630 = 1) (mouse FcγRIII [2])	relative mFcγRII-binding activity (mIgG1 = 1) (mouse FcγRII [3])	relative mFcγRIII-binding activity (mIgG1 = 1) (mouse FcγRIII [4])
MB776 (antibody, mouse IgG1, kappa, CH name; VH H237 + CH, L chain MRAL-k0; copies: 2 + 2) heavy: QVQLQESGPGLVKPSETLSLTCAVSGHSISHDHAWSWVRQPPGEGLEWIGFISYSGITNYNPSLQGRVTISRDNSKNTLYLQMNSLRAEDTAVYYCARSLARTTAMDYWGEGTLVTVSSAKTTPPSVYPLAPGSAAQTNSMVTLGCLVKGYFPEPVTVTWNSGSLSSGVHTFPAVLQSDLYTLSSSVTVPSSTWPSETVTCNVAHPASSTKVDKKIVPRDCGCKPCICEPNEVELVFIFPPKPKDVLTITLTPKVTCVVVDISKDDPEVQFSWFVDDVEVHTAQTQPREEQFNSTFRSVSELPIMHQDWLNGKEFKCRVNSAAFPAPIEKYISKTKGRPKAPQVYTIPPPKEQMAKDKVSLTCMITDFFPEDITVEWQWNGQPAENYKNTQPIMDTDGSYFVYSKLNVQKSNWEAGNTFTCSVLHEGLHNHHTEKSLSHSPGK light: not shown	1.04 fold	1.15 fold	11.3 fold	0.2 fold
MB778 (antibody, mouse IgG1, kappa, CH name; VH H237 + CH, L chain MRAL-k0; copies: 2 + 2) heavy: QVQLQESGPGLVKPSETLSLTCAVSGHSISHDHAWSWVRQPPGEGLEWIGFISYSGITNYNPSLQGRVTISRDNSKNTLYLQMNSLRAEDTAVYYCARSLARTTAMDYWGEGTLVTVSSAKTTPPSVYPLAPGSAAQTNSMVTLGCLVKGYFPEPVTVTWNSGSLSSGVHTFPAVLQSDLYTLSSSVTVPSSTWPSETVTCNVAHPASSTKVDKKIVPRDCGCKPCICEPNEVELVFIFPPKPKDVLTITLTPKVTCVVVDISKDDPEVQFSWFVDDVEVHTAQTQPREEQFNSTFRSVSELPIMHQDWLNGKEFKCRVNSAAFPAPIEKTIKKTKGRPKAPQVYTIPPPKEQMAKDKVSLTCMITDFFPEDITVEWQWNGQPAENYKNTQPIMDTDGSYFVYSKLNVQKSNWEAGNTFTCSVLHEGLHNHHTEKSLSHSPGK light: not shown	0.57 fold	0.65 fold	6.1 fold	0.11 fold
MB779 (antibody, mouse IgG1, kappa, CH name; VH H237 + CH, L chain MRAL-k0; copies: 2 + 2) heavy: QVQLQESGPGLVKPSETLSLTCAVSGHSISHDHAWSWVRQPPGEGLEWIGFISYSGITNYNPSLQGRVTISRDNSKNTLYLQMNSLRAEDTAVYYCARSLARTTAMDYWGEGTLVTVSSAKTTPPSVYPLAPGSAAQTNSMVTLGCLVKGYFPEPVTVTWNSGSLSSGVHTFPAVLQSDLYTLSSSVTVPSSTWPSETVTCNVAHPASSTKVDKKIVPRDCGCKPCICEPNEVELVFIFPPKPKDVLTITLTPKVTCVVVDISKDDPEVQFSWFVDDVEVHTAQTQPREEQFNSTFRSVSELPIMHQDWLNGKEFKCRVNSAAFPAPIEKTIWKTKGRPKAPQVYTIPPPKEQMAKDKVSLTCMITDFFPEDITVEWQWNGQPAENYKNTQPIMDTDGSYFVYSKLNVQKSNWEAGNTFTCSVLHEGLHNHHTEKSLSHSPGK light: not shown	0.92 fold	1.02 fold	10 fold	0.18 fold
MB777 (antibody, mouse IgG1, kappa, CH name; VH H237 + CH, L chain MRAL-k0; copies: 2 + 2) heavy: QVQLQESGPGLVKPSETLSLTCAVSGHSISHDHAWSWVRQPPGEGLEWIGFISYSGITNYNPSLQGRVTISRDNSKNTLYLQMNSLRAEDTAVYYCARSLARTTAMDYWGEGTLVTVSSAKTTPPSVYPLAPGSAAQTNSMVTLGCLVKGYFPEPVTVTWNSGSLSSGVHTFPAVLQSDLYTLSSSVTVPSSTWPSETVTCNVAHPASSTKVDKKIVPRDCGCKPCICEPNEVELVFIFPPKPKDVLTITLTPKVTCVVVDISKDDPEVQFSWFVDDVEVHTAQTQPREEQFNSTFRSVSELPIMHQDWLNGKEFKCRVNSAAFPAPIEKTIIKTKGRPKAPQVYTIPPPKEQMAKDKVSLTCMITDFFPEDITVEWQWNGQPAENYKNTQPIMDTDGSYFVYSKLNVQKSNWEAGNTFTCSVLHEGLHNHHTEKSLSHSPGK light: not shown	0.74 fold	0.72 fold	9.7 fold	0.17 fold
